Data as given in the RNAGym collection of RNA variant scans (doi:10.1073/pnas.2313332121).

B1: TPR t1 (parent)
chain: GACCAAUCUGCCCUCAGAGCUCGAGAACAUCUUCGGAUGCAGAGGAGGCAGGCUUCGGUGGCGCGAUAGCGCCAACGUCCUCAACCUCCAAUGCAUCCCACCACAUGAUGAUGCCUGAAGAGCCUUGGUUUUUUG

Variants of: B1
Assay: polymerase ribozyme fitness, log enrichment relative to wild type (log ratio); higher = more active; in vitro selection for triplet polymerase activity
Procedure, shortened: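 Libraries of mutants in each subunit of a heterodimeric triplet polymerase ribozyme were generated by PCR and transcribed. In triplicate, each went through one in vitro selection round: annealing with biotinylated primer, partner subunit and triplets; frozen incubation at −7 °C; gel excision of extended constructs; streptavidin-bead capture; RT-PCR. Fitness, taken from Illumina sequencing of input and output libraries, is the logarithm of a genotype's enrichment over wild-type enrichment, averaged across replicates with inverse-variance weights. The logarithm is base 2, and genotypes needed ≥10 input reads and ≥1 read per output to be kept.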

Variant	polymerase ribozyme fitness (log ratio)
G10A C114G G135A	-3.42
C11G A27U G47C A83U	-3.57
C11A G60C A95C	-1.9
G10C C20U G48C C114A C123U	-3.33
G10U A41U C72G C101U G110A	-4.92
C11G C49A G52U U131A	-1.34
C11G C28U C56A G60A U78G	-4.9
G10U C82G C85U G120C	0.866
C11G A29G C49G G93U	-3.07
C11A C64U	-1.04
G10A G58C A111G	0.287
G10C C89A	-2.73
G10C G69A	-4.78
G10A G42U C85G	-1.94
C11G C34U C86G A119U	-5.27
C11A A18U U21A C56U	-3.04
G10C C34A	-3.12
C11G C40A	-1.54
C11G A50C	-0.589
C11G A24G C40U A90G U131A	-2.57
G10A G120U G122A	1.51
G10U A16C C49U A118G C124A	-2.5
G10U U78C	-0.395
G10U G19C A37U C72A C73U C123G U130C	-2.79

Variant	polymerase ribozyme fitness (log ratio)
C11A U21A C40U G47A C49A G57A G58C G61U	-5.81
C11G G19A C56U C73U	-2.04
C11A A75U C79U C85A	-2.71
C11G A37U G71A C79A	-1.37
C11G G60A C70U	-0.917
C11A U14G G63A G71A A83G A91C C114U	-5.74
G10U C94U C101A C104A	-3.21
G10A C72U G113A	-1.32
G10C C12U U14A G71U G107U	-5.41
C11G C12A C49U C85A A91C	-2.76
G10U A46C A74U G127C	-2.03
C11A C12G C20U U55A C56U G93C	-4.53
G10U C56A	0.154
C11A C22G	-4.15
C11G C20A A26U C85U A90U A121C	-4.44
G10C A26C A37U U78C A83U U87A C115G G127A	-6.88
C11G A27C G113C G127C	-5.64
G10C G45U G47U C73A G117A A119U	-5.46
C11A A41U G45C	-3.39
C11A G51C	-4.99
C11A A46C G61U C94A	-2.34
C11G C15G G113U	-4.66
C11G C20U G63A	-2.21
C11A C53U C85A	-3.03

Variant	polymerase ribozyme fitness (log ratio)
C11A G57A C73A C88G	-4.51
C11G A18U G42C C89A	-0.965
G10A C56U A74C A75U G93U	-0.9
G10U C15U A91C U125A	-3.89
C11G C28G A105U G110U	-6.33
C11G G48U C72A	-0.215
G10U C28G A46U G52A G63A U87C	-5.27
G10A C73G	-0.355
C11G G23A C76U	-6.14
G10U A24G G58C C79U	-2.27
G10U C56A U112A	0.0795
G10U C40G	-0.556
C11G C20G C49A G117C	-5.23
G10C C98U	-1.81
C11A G63U	-1.77
G10A G39U A90C U106A	-2.41
C11G G71A C89U G110U	-3.53
C11G C53U C80U C88A U112C	0.738
G10A G61U A100C G135U	-1.17
C11G G48C A66G G110A	-3.11
C11A C115G	-3.42
C11G G69A C70A	-4.98
C11A C73U C94U	-1.82
C11G G39C A74U C115U	-2.3

Variant	polymerase ribozyme fitness (log ratio)
C11G G61C U78A U126A	-0.897
G10A C62A A91C C123U	-0.505
G10C A37U C72A	-0.966
G10U C20A A84U U131C	-2.84
G10C A26C G120C G122A C123G G128A	-5.85
C11G C22U G44U	-4.93
C11A G69U C79U C102U	-1.74
C11A G17C U55C C88U U131G	-5.05
G10U A50U	-1.65
G10C A83U U106G	-3.53
C11G G47U	-0.345
C11G G47A	-0.824
G10A G71A C80A	-4.78
C11A C40U G69U A83G G117U G127C U133G	-4.24
C11G G52U A118G C124G	0.453
C11G G51A C72A	-2.19
G10U U55G A111C	-0.134
G10A U59C A66C A68G U106G A121U	-4.4
G10C C28G	-3.74
C11A G48A A50U C70U C97G G122A	-5.3
C11G A50C C72A U92G C114A G122C U131C	-3.27
G10A U129A	-1.14
C11G A27C G48A C94G	-4.21
G10U A100U	-1.18

Variant	polymerase ribozyme fitness (log ratio)
G10A C64U U129G	-1.78
C11A G69U C94U U130A	-1.6
C11A C56A A100C	-3.86
G10U G36A G61C	-3.3
G10U C73G	-0.976
G10U U129C	-1.9
C11G A66G C114U C124G	-3.83
C11A U55G C80U C104U G113A	-4.77
C11G C70G C123U	-0.504
G10C G36C G45C U59G C62U C80U	-3.25
G10C G57C G117C	-4.35
C11G C22U C34A A37U C88A U96G C115U	-7.3
C11G A37C A46U G120C G128C	-0.871
G10U C20G C99U C115U	-8.2
C11A G45U A95C G113U	-7.14
C11G G23U G39C G45C G47C C89U C99G C115U	-7.14
C11A C31U C40U G47C C62U G107A	-4.34
G10U U21A G60U G71A C89U C101U C124A	-6.77
C11A C53U C56A G63A C76G	-3.79
G10U U55C C123A	0.286
C11G C56U U87C	0.175
C11G A43G C85A C89G C94U	-2.52
G10C A26G G69A U125A	-5.51
G10A G57U A90G U126A	-1.18

Variant	polymerase ribozyme fitness (log ratio)
C11A G39C G110C	-5.5
G10U C13A C104U	-0.097
G10U G52A C79G A119U	-0.109
C11G C12U G42C G69C	-5.66
C11G C62U	-0.108
C11A A121U	0.371
G10U G110A	-1.35
G10U C12U C31U C72U C85A G122A	-5.23
G10U G36A C64G A83G C94G G110U	-7.24
G10C C15A G69U U112G	-1.87
C11A G52A A68G C101U G117C	-7.38
G10U A27C U112C	-1.73
G10C G47U C101A A103U	-6.38
C11G C20A C53G U132A	-2.13
C11G C40U U87G C115U	-0.239
C11A C20U C34A C53A C94G A121U	-3.61
G10C A27G C40U A121U	0.906
G10A C88A A90G G122U U133G	0.185
C11A G48U A66U C72A U96G U112C	-2.05
C11A U14A A18U U55C	-4.98
G10C A18U	-3.34
G10A U92A	-2.86
C11G G63A A111G	-0.361
G10U C11G A29C C53A A74U	-3.94

Variant	polymerase ribozyme fitness (log ratio)
C11G G42C A95U	-1.3
G10U C22G A50C A118G	-5.56
G10C U87A	-0.978
C11A A105C	-3.07
C11A G60U A74U C88A	-2.8
C11A G45A G60A G113C	-4.47
G10A G17U C115A G135U	0.196
C11A G71A	-1.67
C11A G71U	-1.08
G10U C34G C102U	-6.42
G10C G42U	-2.19
C11G A50U A66G U87C C115U A118C	-6.65
C11A C12A G71A C89G A90G C101U U133G	-4.22
C11G C76A G77A G93U	-1.15
G10C C12A G51A G127C	-4.99
C11G G19C G23A G63A A83C C114U C115U C123G	-7.99
G10C C70U A108U U112A U132C	-6.08
C11A C15U G44U C72A U129A U132C	-5.25
G10U C12A C49U A118U U131G	-1.34
G10A G63C	-0.414
C11A C40U C49U C56A C123G U129A	-3.2
C11A C72G	-1.14
G10A G45A G63U C82A C85A U92C	-5.42
